Molecular target: T1, DPY-22 PQ-rich domain (C. elegans, UniProt Q20497 2142-3498, limits assumed)
T1 construct: domain: PQ-rich domain; Expressed in yeast from a Clontech two-hybrid bait or prey plasmid, so fused to a Gal4 BD or AD; also called C-terminal PQ-rich domain of DPY-22; MED12/DPY22
T1 sequence (looked up): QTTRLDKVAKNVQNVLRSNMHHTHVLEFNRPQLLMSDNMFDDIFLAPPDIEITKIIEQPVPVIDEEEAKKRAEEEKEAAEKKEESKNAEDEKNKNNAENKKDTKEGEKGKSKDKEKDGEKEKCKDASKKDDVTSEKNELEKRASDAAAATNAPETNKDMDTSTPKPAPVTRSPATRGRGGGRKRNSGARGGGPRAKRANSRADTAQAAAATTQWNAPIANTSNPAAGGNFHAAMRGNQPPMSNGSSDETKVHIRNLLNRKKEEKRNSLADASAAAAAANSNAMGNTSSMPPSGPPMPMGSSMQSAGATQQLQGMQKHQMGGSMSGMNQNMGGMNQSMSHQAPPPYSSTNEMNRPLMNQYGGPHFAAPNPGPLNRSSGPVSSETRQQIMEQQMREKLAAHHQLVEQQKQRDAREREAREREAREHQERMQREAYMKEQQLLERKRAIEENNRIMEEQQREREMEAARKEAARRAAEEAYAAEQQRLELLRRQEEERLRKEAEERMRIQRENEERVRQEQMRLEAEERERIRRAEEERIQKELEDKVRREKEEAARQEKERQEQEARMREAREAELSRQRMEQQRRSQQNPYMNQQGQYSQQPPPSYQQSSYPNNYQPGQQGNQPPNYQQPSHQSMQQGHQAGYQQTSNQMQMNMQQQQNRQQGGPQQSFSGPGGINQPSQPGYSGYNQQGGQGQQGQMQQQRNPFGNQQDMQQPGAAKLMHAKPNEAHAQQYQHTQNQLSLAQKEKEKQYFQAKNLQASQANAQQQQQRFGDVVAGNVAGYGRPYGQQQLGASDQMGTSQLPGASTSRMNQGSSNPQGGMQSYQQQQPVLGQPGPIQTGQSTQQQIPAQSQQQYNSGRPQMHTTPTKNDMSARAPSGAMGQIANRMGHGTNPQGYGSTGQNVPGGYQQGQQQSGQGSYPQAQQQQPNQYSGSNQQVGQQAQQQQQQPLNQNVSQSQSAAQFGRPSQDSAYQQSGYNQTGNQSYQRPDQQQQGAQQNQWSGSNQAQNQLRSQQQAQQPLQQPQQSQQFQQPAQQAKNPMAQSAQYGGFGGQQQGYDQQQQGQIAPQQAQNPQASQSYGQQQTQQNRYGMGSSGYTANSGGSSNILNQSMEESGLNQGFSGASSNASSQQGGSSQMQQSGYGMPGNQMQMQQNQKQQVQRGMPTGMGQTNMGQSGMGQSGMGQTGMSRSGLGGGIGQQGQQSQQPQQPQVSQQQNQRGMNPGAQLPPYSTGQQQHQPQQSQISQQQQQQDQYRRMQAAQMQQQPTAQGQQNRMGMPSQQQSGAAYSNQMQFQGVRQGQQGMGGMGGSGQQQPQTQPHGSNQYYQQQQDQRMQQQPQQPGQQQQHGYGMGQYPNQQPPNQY
Assay: yeast two-hybrid
Description: The yeast two-hybrid assay was performed following the manufacturer's protocol (Clontech). Briefly, fresh Yeast Gold colonies (<1 week old) were cultured in YPD liquid medium at 30° C. to the O.D.600 of 0.5, harvested, washed, and resuspended in 1.1×TE/LiAc. 100 ng of bait and prey plasmids were mixed with […] of denatured salmon sperm carrier DNA and were transformed into competent yeast cells in the presence of 1×PEG/LiAc. The cell mix was then plated on both -Leu-Trp and -Leu-Trp-His-Ade dropout plates and was allowed to grow and 30° C. for 2-3 days. Single colonies that grew on the double and quadruple dropout plates were resuspended in H2O and respotted to fresh dropout plates, which were grown at 30° C. for 2 days. Images of the respotted plates were captured using a Canon Powershot A590 digital camera (Canon) and processed by Photoshop CS4 software (Adobe).
Two let-19 alleles contain missense mutations, and all five of the dpy-22 alleles contain nonsense mutations that truncate the C-terminal PQ-rich domain (FIG. 3C). In vertebrates, Med12 interacts with transcription factors through the PQ-rich domain to promote gene expression and tissue development (37-41). To determine if Mediator might specifically promote I4 neurogenesis by interacting with bHLH proneural factors, we performed a yeast two-hybrid assay. […]

binding result: no binding
B1: HLH-3 (other)
chain: MTASTSSTPSTSTKIPSSSKSSVTKQTKQKRNERERKRVDQVNQGFVLLQERVPKAAGNKAKLSKVETLREAARYIQELQKQLGMSSTSFHNSMPADFPTPEQSPVYPQSVCSMMAQTPSPSYTSPYYPPPQMMSSNQHDMSSHYYQESSSSSASTSGDHHSFYSHTETY
notes: Yeast two-hybrid fusion (Gal4 BD or AD); also called ASCL1/HLH3; C. elegans homolog of Ascl1/Mash1
